Test results: patent publication US10323078B2, “Isolated peptides and fragments thereof from fibrinogen for use as drugs, particularly in skin inflammatory diseases” (Universite Paris Descartes, priority 2015, dated 2019)

B1: MKRMVSWSFHKLKTMKHLLLLLLCVFLVKSQGVNDNEEGFFSARGHRPLDKKREEAPSLRPAPPPISGGGYRARPAKAAATQKKVERKAPDAGGCLHADPDLGVLC (protein)
chain: MKRMVSWSFHKLKTMKHLLLLLLCVFLVKSQGVNDNEEGFFSARGHRPLDKKREEAPSLRPAPPPISGGGRARPAKAAATQKKVERKAPDAGGCLHADPDLGVLCMKRMVSWSFHKLKTMKHLLLLLLCVFLVKSQGVNDNEEGFFSARGHRPLDKKREEAPSLRPAPPPISGGGYRARPAKAAATQKKVERKAPDAGGCLHADPDLGVLC
modifications: GST fusion; fragment Fg1
notes: fragment of Bß chain of human fibrinogen having 106 amino acids; recombinant GST-fused peptide expressed in E. coli

Tests used:
[1] = test system: P. acnes surface proteins; assay: Binding of biotinylated ECM ligands to immobilized P. acnes surface proteins; design: species or system Propionibacterium acnes
Method: FIG. 2: Binding of P. acnes surface protein to purified human fibrinogen. (A) P. acnes surface proteins (0.8 to 50 μg/ml) were immobilized onto a 96-well polystyrene plate and probed with biotinylated fibrinogen (0.1 μg/ml) for 2 h at room temperature. (B) P. acnes surface proteins (25 μg/ml) were immobilized onto a 96-well polystyrene plate and probed with various concentrations of biotinylated fibrinogen ranging from 0.1 to 16 μg/ml for 2 h at room temperature. Bound biotinylated fibrinogen were detected with HRP-streptavidine as described in Materials and Methods.
To characterize the interaction between P. acnes and ligands, we used biotinylated molecules in quantitative and qualitative assays. In a first set of assays, ECM ligands (fibrinogen, collagens I, IV, VI and VIII) were used as labelled proteins with biotin. In a second set of assays, P. acnes surface proteins (total extract and purified Pfg) were biotinylated. For quantitative analysis, unlabeled protein were diluted into 50 mM carbonate-bicarbonate, pH 9.6 buffer to yield a protein concentration ranging from 0.01 to 50 μg/ml, and then immobilized to 96-well polystyrene plates at 4° C. overnight. […] After washing, bound peroxidase was detected using the chromogenic peroxidase substrate ABTS. […] Binding activity was detected by incubating the membranes with 20 ml of PBT containing biotinylated proteins (0.1 μg/ml) for 2 h at room temperature followed by three washes with PBT. Bound biotinylated proteins were detected by incubating the membrane with peroxidase conjugated to streptavidin (0.5 μg/ml in PBT) for 1 h at room temperature. After washing, bound peroxidase activity was detected using 3,3′-diaminobenzidine in the presence of CoCl2 and H2O2 (Harlow and Lane, 1988).
In order to identify P. acnes surface protein recognized by ECM ligands, we used the most commons ECM proteins recognize by skin related bacteria like collagens and fibrinogen. […] To identify surface proteins, P. acnes total heat protein extracts were electrophoretically separated and detected by silver staining (FIG. 1B). […]

HaCaT cells = assay: IL-8 production by P. acnes-stimulated HaCaT (ELISA); assay type: cell-based, human; conditions: 0.87 to 7 μM
Method: For experiences of stimulation with P. acnes, cells were incubated with the P. acnes suspension adjusted at the appropriate concentration, pre-treated for 1 h at 37° C. or not with fibrinogen recombinant peptides Fg1 and Fg2 at the concentrations 0.87, 1.75, 3.5 or 7 μM for the desired period of time at 37° C. in 5% CO2.
Human IL-1ß, IL-8, IL-12, hBD-2, and TNF-α protein concentration was measured in the supernatants of stimulated cells using various ELISA Set kits (Ready-Set-Go kit from eBioscience for acne experiments, and for psoriasis experiments the Duo set IL-8 kit from R&D Systems and the BD-2 Human Development (hBD-2) from Peprotech) according to the manufacturer's instructions. We used serial dilutions of recombinant human IL-1ß, IL-8, IL-12 and TNF-α for standard curve. The optical density was determined at 450 nm at a wavelength correction of 540 nm.
To assess the efficacy of Fg1 recombinant peptide, the production of O2^∘− and H2O2 by HaCaT cells NHDK, THP-1, MRC5 and HDF stimulated by pretreated P. acnes strains 6919, RON and PIE was measured. The amount of ROS produced was compared to that produced by the stimulated cells with untreated bacteria. Production baseline was obtained by measuring ROS on unstimulated cells. The production of IL-1ß, IL-8, IL-12 and TNF-α was also measured in all conditions cited above. The measurement of the production of ROS is performed by spectrofluorimetry in the presence of specific fluorochromes directly on the monolayer cell. Measurement of cytokine production was performed in parallel on the cell culture supernatant.
Two sets of experiments were implemented: 1) The cells were stimulated (18 h at 37° C.) by P. acnes strains previously pretreated with Fg1 and Fg2 peptides at the final concentrations ranging from 0.87 to 7 μM for 1 h at 37° C.; and 2) The cells were pretreated first with Fg1 and Fg2 peptides at the final concentrations ranging from 0.87 to 7 μM for 24 h at 37° C. and stimulated (18 h at 37° C.) by P. acnes strains. […]
Immortalized keratinocytes HaCaT cell were seeded in 96-well plates at 10^5 cells/well (Corning Costar, Brumath, France) and stimulated with P. acnes 6919 strain (O.D.620 nm=0.3) pretreated 1 h at 37° C. with the Fg1 and Fg1.1.1 peptides at the concentrations of 2.5, 5 and 10 μM for 18 h at 37° C. under 5% CO2. Then, culture supernatant was removed and the IL-8 concentration was measured by ELISA assay (eBioscience).

Row | Molecule | Binding activity of biotinylated ligand to immobilized P. acnes total surface protein ([1]; 25 μg/ml of protein immobilized per well, various quantity of biotinylated Fg and Collagen I) | P. acnes protein extract concentration at which the binding activity for fibrinogen reaches a plateau ([1]; several concentrations of protein extract immobilized, biotinylated fibrinogen 0.1 μg/ml) | Inhibition of Interleukine 8 (IL-8) production (HaCaT cells; P. acnes 6919, set I, bacteria first pretreated) | Inhibition of Interleukine 8 (IL-8) production (HaCaT cells; P. acnes 6919, set II, cells first pretreated) | Inhibition of Interleukine 8 (IL-8) production (HaCaT cells; P. acnes PIE, set I, bacteria first pretreated) | Inhibition of Interleukine 8 (IL-8) production (HaCaT cells; P. acnes PIE, set II, cells first pretreated) | Inhibition of Interleukine 8 (IL-8) production (HaCaT cells; P. acnes RON, set I, bacteria first pretreated) | Inhibition of Interleukine 8 (IL-8) production (HaCaT cells; P. acnes RON, set II, cells first pretreated)
1 | human fibrinogen: purified commercial human fibrinogen (Sigma), glycoprotein hexamer of Aα, Bß and γ chains | strong binding activity | about 6.25 μg/ml | – | – | – | – | – | –
2 | B1 | – | – | pos | pos | pos | pos | pos | pos
